Laboratory results as given in US20190276534A1 (Eli Lilly, published 2019).

What was measured:
[1] = target: T1, human Tim-3-IgV-Fc single arm antigen (SAG) (human); test: SPR Biacore T100, antibody captured on Human Fab Binder, Tim-3 SAG as analyte, 1:1 Langmuir with mass transport
T1 construct: Construct is only named; its build is not described; also called Tim-3 SAG; not shown: Fc part; second Fc arm of the single arm antigen; not described
T1 sequence (Q8TDQ0 whole entry, looked up): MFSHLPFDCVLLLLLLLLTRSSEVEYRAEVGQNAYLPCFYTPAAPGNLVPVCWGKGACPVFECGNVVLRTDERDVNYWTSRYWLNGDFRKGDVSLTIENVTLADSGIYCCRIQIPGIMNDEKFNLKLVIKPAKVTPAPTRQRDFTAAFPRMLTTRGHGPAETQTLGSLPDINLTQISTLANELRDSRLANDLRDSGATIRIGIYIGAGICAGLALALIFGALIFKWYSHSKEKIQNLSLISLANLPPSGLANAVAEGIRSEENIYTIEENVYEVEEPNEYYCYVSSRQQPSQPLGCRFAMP

[2] = target: T2, cell surface human Tim-3 on Tim-3 DO11.10 cells (human, UniProt Q8TDQ0 22-301); test: flow cytometry, A488-labelled antibody on Tim-3 DO11.10 cells
T2 construct: whole, on cells; Also used as the target for the mixed lymphocyte reaction rows, where Tim-3 is on primary human cells; also called Tim-3 D011.10 cells
T2 sequence (looked up): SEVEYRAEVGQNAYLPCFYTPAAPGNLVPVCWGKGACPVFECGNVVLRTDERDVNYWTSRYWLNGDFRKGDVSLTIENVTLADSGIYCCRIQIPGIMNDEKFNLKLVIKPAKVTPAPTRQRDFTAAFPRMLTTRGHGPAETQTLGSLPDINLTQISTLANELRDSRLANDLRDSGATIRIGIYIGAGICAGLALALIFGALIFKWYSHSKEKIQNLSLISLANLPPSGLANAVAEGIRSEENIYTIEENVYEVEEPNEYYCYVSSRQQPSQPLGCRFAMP

[3] = target: T3, human Tim-3-Fc (R&D Systems) (human, UniProt Q8TDQ0 22-130, biotinylated in the phosphatidylserine assay; ruthenylated (sulfo-tag NHS-ester) in the galectin-9 assay); test: flow cytometry, blocking of biotinylated hTIM-3-Fc binding to phosphatidylserine on camptothecin-treated DO11.10 cells
T3 construct: Bought protein; Supplier is not repeated for the CEACAM1 assay; also called hTIM-3-Fc; hTIM-3-Fc Biotin; not shown: Fc part of the bought fusion protein
T3 sequence: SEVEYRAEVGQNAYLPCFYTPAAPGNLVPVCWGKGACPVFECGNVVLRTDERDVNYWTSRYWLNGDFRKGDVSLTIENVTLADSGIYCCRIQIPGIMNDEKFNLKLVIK

[4] = target: T3, human Tim-3-Fc (R&D Systems); test: MSD plate competition assay, ruthenylated hTim-3-Fc binding to coated galectin-9-biotin; competitor galectin-9
[5] = target: T3, human Tim-3-Fc (R&D Systems); test: ELISA, human Tim-3-Fc coated, anti-human IgG F(ab')2-HRP detection
[6] = target: T4, hTim-3-IgV-FLAG (human, UniProt Q8TDQ0 22-130, density indicating glycosylation at Asn99); test: SPR Biacore T200, Fab captured, hTim-3-IgV-FLAG as analyte, HBS-EP, 25 C, 1:1 binding
T4 construct: Purified from 293HEK supernatant; also called hTim-3-FLAG; human Tim-3 IgV domain; not shown: FLAG tag
T4 sequence: T3 sequence

[7] = target: human PD-1 on CHO cells (human, UniProt Q15116 25-288); test: flow cytometry, CHO cells with human PD-1 incubated with antibody 100 nM, then PD-L2-FITC; competitor PD-L2-FITC
Sequence of human PD-1 on CHO cells (Q15116 25-288 limits assumed): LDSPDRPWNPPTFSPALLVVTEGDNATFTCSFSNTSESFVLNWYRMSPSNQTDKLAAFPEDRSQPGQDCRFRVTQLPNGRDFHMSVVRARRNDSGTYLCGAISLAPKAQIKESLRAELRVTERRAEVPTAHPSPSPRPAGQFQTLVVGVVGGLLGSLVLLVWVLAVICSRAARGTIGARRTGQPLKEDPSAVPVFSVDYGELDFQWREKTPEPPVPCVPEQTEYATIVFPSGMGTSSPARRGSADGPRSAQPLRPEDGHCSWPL

B1: Antibody A (anti-Tim-3 Antibody) (antibody, human IgG1, kappa, V domains shown)
VH: EVQLLESGGGLVQPGGSLRLSCAASGFTFSSYYMSWVRQAPGKGLEWVSAISGSGGSTYYADSVKGRFTISRDNSKNTLYLQMNSLRAEDTAVYYCARYARTAFDLWGQGTLVTVSS
VL: DIVMTQSPSSLSASVGDGVTITCQASQDIYNYLNWYQQKPGKAPKLLIYAASSLQSGVPSRFSGSGSGTDFTLTISSLQPEDFATYYCQQANSFPPTFGQGTKLEIKR
notes: Full IgG; also called anti-human Tim-3
Kd [1]: 0.398 nM | koff [1]: 0.000927 s⁻¹ | kon [1]: 2.33e+06 M⁻¹ s⁻¹ | EC50 [2]: 0.09 nM | IC50 [3]: 0.32 nM | IC50 [4]: 5.6 nM | EC50 [5]: 0.0207 nM

B2: Antibody A-Fab (Fab, V domains shown)
VH: B1 VH
VL: B1 VL
notes: Made by clipping Antibody A with immobilized papain; the Fc part was not present in the assay; also called Fab for Antibody A
Kd [6]: 7.92 nM | koff [6]: 0.00286 s⁻¹ | kon [6]: 362000 M⁻¹ s⁻¹

B3: Antibody D in IgG1 format (antibody, V domains shown)
VH: QVQLVQSGAEVKKPGSSVKVSCKASGGTFSSYAISWVRQAPGQGLEWMGLIIPMFDTAGYAQKFQGRVAITVDESTSTAYMELSSLRSEDTAVYYCARAEHSSTGTFDYWGQGTLVTVSS
VL: DIQMTQSPSSVSASVGDRVTITCRASQGISSWLAWYQQKPGKAPKLLISAASSLQSGVPSRFSGSGSGTDFTLTISSLQPEDFATYYCQQANHLPFTFGGGTKVEIK
notes: IgG1 format, expressed in yeast; also called Antibody D, in IgG1 format and expressed in yeast
MFI (PD-L2-FITC) in presence of the antibody [7]: 24700
